Here are results for twelve molecules from patent US20110159021A1 (Dana-Farber, published 2011).

First the molecules themselves.
B1: heteroclitic spliced XBP1 367-375 (YLFPQLISV) (peptide)
peptide: YLFPQLISV
notes: Heteroclitic variant of the spliced XBP1 367-375 peptide, synthetic; also called SP XBP1 #3M; XBP1 SP 3M
B2: XBP1 189-197 (ILAVLTLQI) (peptide)
peptide: ILAVLTLQI
notes: Native peptide of non-spliced XBP1, synthetic; also called XBP1 #3 peptide
B3: XBP1 110-118 (KLLLENQLL) (peptide)
peptide: KLLLENQLL
notes: Native peptide of non-spliced XBP1, synthetic; also called XBP1 #5 peptide
B4: SP XBP1 196-204 (GILDNLDPV) (peptide)
peptide: GILDNLDPV
notes: also called SP XBP1 #1 peptide; SP XBP1 #1p
B5: SP XBP1 367-375 (ELFPQLISV) (peptide)
peptide: ELFPQLISV
notes: Native peptide of spliced XBP1, synthetic; also called SP XBP1 #3 peptide; SP XBP1 #3p
B6: XBP1 184-192 (NISPWILAV) (peptide)
peptide: NISPWILAV
notes: Native peptide of non-spliced XBP1, synthetic; also called XBP1 #2 peptide; XBP1 #2p
B7: CD138 260-268 (GLVGLIFAV) (peptide)
peptide: GLVGLIFAV
notes: Native peptide of CD138, synthetic; also called CD138 #2p; CD138 #2 peptide

In one experiment the target is T1, HLA-A2 molecules on the surface of human T2 cells (human).
T1 construct: MHC class I molecule that the peptides load onto; also called HLA-A2.1; HLA-A*0201
Put plainly: peptide stability assay on T2 cells after Brefeldin A, flow cytometry with FITC anti-HLA-A2 mAb. On the technique in general: A flow cytometer gives signals particle by particle.
On to B1, for which the binding result is “binds”.

In another experiment the target is T1, HLA-A2 molecules on the surface of …. Put plainly: T2 peptide-binding assay; HLA-A2 up-regulation on T2 cells, 50 ug/mL peptide plus b2m, flow cytometry with PE anti-HLA-A2 mAb.
LLLSLFVLGL [CS1-P1: CS1 236-245 (LLLSLFVLGL)]: the binding result was “binds”.

Take SLFVLGLFL (Native peptide of CS1, synthetic) [CS1-P2: CS1 239-247 (SLFVLGLFL)]: the binding result was “binds”.

On to LLVPLLLSL (Native peptide of CS1, synthetic) [CS1-P3: CS1 232-240 (LLVPLLLSL)], for which the binding result was “binds”.

As to TLIYILWQL (Native peptide of CS1, synthetic) [CS1-P4: CS1 9-17 (TLIYILWQL)], the binding result is recorded as “binds”.

For the next experiment the target is unchanged. Put plainly: T2 peptide-binding assay; HLA-A2 up-regulation on T2 cells, flow cytometry.
With LLREKTHGL (also called XBP1 #1 peptide) [XBP1 117-125 (LLREKTHGL)], the binding result is on record as “binds”.

Take B2: the binding result is recorded as “binds”.

With B3, the binding result is “binds”.

A further experiment has the same target. Put plainly: T2 peptide-binding assay; HLA-A2 up-regulation on T2 cells, 50 ug/ml peptide plus b2m, flow cytometry with FITC anti-HLA-A2 mAb.
For the molecule B4, the “MFI (HLA-A2 mean fluorescence intensity)” value amounted to 762 MFI.

As to B5, the “MFI (HLA-A2 mean fluorescence intensity)” value came out at 785 MFI.

Consider B6, for which the “MFI (HLA-A2 mean fluorescence intensity)” value was 720 MFI.

For the molecule B7, the “MFI (HLA-A2 mean fluorescence intensity)” value came out at 690 MFI.
